Laboratory results: patent US20240165140A1, “MEDICATION FOR INHIBITING DNA-PKCS” (TSINGHUA UNIVERSITY, priority 2017, published 2024)
“Also recorded” adds a separate entry of the source.

How the values were obtained:
DNA-PKcs = target: T1, DNA-PKcs (Homo sapiens, UniProt P78527); experiment: Endostatin-coupled CNBr-activated Sepharose 4B pull-down and co-immunoprecipitation; format: binding
T1 construct: incubated with A549 cell lysate; endogenous in cells; host or cells: A549 and H1299 cells (lysates)
Description: CNBr-activated Sepharose 4B used in this example was purchased from Sigma. First, according to the instructions, endostatin and bovine serum albumin (BSA) were coupled to CNBr-activated Sepharose 4B, respectively, and incubated with A549 cell lysate. The pull down proteins were subjected to SDS-PAGE electrophoresis and stained with Coomassie blue. […] To further verify the interaction between the two, H1299 and A549 cells were incubated with Endostatin for 2 hours for endocytosis. The cell lysate was mixed with the antibody of DNA-PKcs, and then co-incubated with protein A/G beads.

[1] = test system: DNA-PKcs signaling pathway; experiment: Immunoblotting of DNA-PKcs signaling pathway activation induced by chemotherapeutic agent; format: cell-based; conditions: H1299 and A549 cells; single agent 1 h (Etoposide 10 μM, Endostatin 10 μg/ml, NU7026 10 μM); compared with control group
Source text: Tumor cells (including non-small cell lung cancer H1299 and A549 cells) were divided into six treatment groups.
Tumor cells (including H1299 and A549 cells) were divided into six treatment groups.

γH2AX = experiment: Immunoblotting of γH2AX level (DSBs damage repair); format: cell-based; conditions: H1299 and A549 cells; Endostatin 10 μg/ml pretreatment 1 h, Etoposide 10 μM 1 hour, then fresh medium
Source text: In this example, the level of γH2AX was used to reflect the degree of DSBs damage. Tumor cells (including H1299 and A549 cells) were divided into eight treatment groups.

[2] = test system: tumor cells with normal P53 function (H1299-P53, A549-NC); experiment: Cell colony formation, tumor cells with normal P53 function; format: cell-based; conditions: Endostatin 10 μg/ml added 1 h before Etoposide 1 μM, 16 h
Description: After the treatment, the cells were digested with trypsin, counted, and re-plated in a six-well plate with 1000 cells per well. The cells were cultured in a normal medium for 14 days to form cell colonies.

[3] = test system: mRNA levels of BAX, NOXA, PUMA, and P21; experiment: Real-time PCR of pro-apoptotic molecules, tumor cells with normal P53 function; format: cell-based; conditions: H1299-P53, A549-NC; Endostatin 10 μg/ml added 1 h before Etoposide 1 μM, 16 h
Description: After the cells were treated as described above, the total RNA of the cells was extracted, and the relative changes in mRNA levels of BAX, NOXA, PUMA, and P21 in the cells were detected by real-time PCR.

A549-shP53 tumor = experiment: Subcutaneous tumor growth in nude mice, A549-shP53; format: in vivo; conditions: A549-shP53, Day 27; compared with control group; Endostatin 20 mg/kg i.p. once a day, Etoposide 2 mg/kg i.p. once every two days
Description: (§1) Tumor-bearing nude mice were randomly divided into four groups with 6 to 8 animals for each group, and different drug treatments were performed. […] Tumor volume was measured every other day. 2 to 4 weeks after administration, the mice were sacrificed and the tumor tissue was removed for further use.

H1299-P53 tumor = experiment: Subcutaneous tumor growth in nude mice, H1299-P53; format: in vivo
Description: as §1

[4] = test system: A549 tumor-bearing mice (normal P53 function); experiment: Survival of A549 tumor-bearing mice; format: in vivo; conditions: A549, normal P53 function (FIG. 13B); compared with control group; administration as in Example 12, stopped after 25 days
Description: as §1
H1299 and A549 cells were cultured in a vigorous and proliferative state, and tumor collection, grouping, and administration methods were the same as in Example 12. The administration was stopped after 25 days, and the survival of the mice was recorded daily, and the survival curve of the mice was plotted.

[5] = test system: PCNA and DNA-PKcs protein in H1299-NC and A549-shP53 tumor tissues; experiment: Immunofluorescence of PCNA and DNA-PKcs in tumor tissue, P53-deficient mouse tumor model; format: in vivo, nude mice; conditions: H1299-NC and A549-shP53 tumors of Example 12; quantitative immunofluorescence
Description: as §1
(§2) The tumor tissue removed in Example 12 was fixed and embedded, and then sectioned. PCNA (a marker molecule indicating the vigorous proliferation status of tumor cells) and DNA-PKcs protein in tumor tissues were stained by immunofluorescence technique, and were observed and imaged with a laser confocal microscope (Nikon A1). The experimental results are shown in FIG. 14A-14D, in which blue represents the nucleus of DAPI-stained cells, green represents the DNA-PKcs protein, and red represents the PCNA protein. Taking the H1299-NC tumor tissue shown in FIG. 14A as an example, the first column on the left represents DNA-PKcs single staining, and the green area represents the DNA-PKcs protein expression level. The second column on the left represents the results of DNA-PKcs (green) merged with nucleus (blue), and the overlapping part is shown in cyan. The third column on the left represents PCNA single staining, and the red area represents the PCNA protein expression level, indicating the strength of tumor cell proliferation. […]

[6] = test system: PCNA and DNA-PKcs protein in H1299-P53 and A549-NC tumor tissues; experiment: Immunofluorescence of PCNA and DNA-PKcs in tumor tissue, mouse tumor model with normal P53 function; format: in vivo, nude mice; conditions: H1299-P53 and A549-NC tumors of Example 12; quantitative immunofluorescence
Description: as §1, §2

T1 sequence (P78527 whole entry): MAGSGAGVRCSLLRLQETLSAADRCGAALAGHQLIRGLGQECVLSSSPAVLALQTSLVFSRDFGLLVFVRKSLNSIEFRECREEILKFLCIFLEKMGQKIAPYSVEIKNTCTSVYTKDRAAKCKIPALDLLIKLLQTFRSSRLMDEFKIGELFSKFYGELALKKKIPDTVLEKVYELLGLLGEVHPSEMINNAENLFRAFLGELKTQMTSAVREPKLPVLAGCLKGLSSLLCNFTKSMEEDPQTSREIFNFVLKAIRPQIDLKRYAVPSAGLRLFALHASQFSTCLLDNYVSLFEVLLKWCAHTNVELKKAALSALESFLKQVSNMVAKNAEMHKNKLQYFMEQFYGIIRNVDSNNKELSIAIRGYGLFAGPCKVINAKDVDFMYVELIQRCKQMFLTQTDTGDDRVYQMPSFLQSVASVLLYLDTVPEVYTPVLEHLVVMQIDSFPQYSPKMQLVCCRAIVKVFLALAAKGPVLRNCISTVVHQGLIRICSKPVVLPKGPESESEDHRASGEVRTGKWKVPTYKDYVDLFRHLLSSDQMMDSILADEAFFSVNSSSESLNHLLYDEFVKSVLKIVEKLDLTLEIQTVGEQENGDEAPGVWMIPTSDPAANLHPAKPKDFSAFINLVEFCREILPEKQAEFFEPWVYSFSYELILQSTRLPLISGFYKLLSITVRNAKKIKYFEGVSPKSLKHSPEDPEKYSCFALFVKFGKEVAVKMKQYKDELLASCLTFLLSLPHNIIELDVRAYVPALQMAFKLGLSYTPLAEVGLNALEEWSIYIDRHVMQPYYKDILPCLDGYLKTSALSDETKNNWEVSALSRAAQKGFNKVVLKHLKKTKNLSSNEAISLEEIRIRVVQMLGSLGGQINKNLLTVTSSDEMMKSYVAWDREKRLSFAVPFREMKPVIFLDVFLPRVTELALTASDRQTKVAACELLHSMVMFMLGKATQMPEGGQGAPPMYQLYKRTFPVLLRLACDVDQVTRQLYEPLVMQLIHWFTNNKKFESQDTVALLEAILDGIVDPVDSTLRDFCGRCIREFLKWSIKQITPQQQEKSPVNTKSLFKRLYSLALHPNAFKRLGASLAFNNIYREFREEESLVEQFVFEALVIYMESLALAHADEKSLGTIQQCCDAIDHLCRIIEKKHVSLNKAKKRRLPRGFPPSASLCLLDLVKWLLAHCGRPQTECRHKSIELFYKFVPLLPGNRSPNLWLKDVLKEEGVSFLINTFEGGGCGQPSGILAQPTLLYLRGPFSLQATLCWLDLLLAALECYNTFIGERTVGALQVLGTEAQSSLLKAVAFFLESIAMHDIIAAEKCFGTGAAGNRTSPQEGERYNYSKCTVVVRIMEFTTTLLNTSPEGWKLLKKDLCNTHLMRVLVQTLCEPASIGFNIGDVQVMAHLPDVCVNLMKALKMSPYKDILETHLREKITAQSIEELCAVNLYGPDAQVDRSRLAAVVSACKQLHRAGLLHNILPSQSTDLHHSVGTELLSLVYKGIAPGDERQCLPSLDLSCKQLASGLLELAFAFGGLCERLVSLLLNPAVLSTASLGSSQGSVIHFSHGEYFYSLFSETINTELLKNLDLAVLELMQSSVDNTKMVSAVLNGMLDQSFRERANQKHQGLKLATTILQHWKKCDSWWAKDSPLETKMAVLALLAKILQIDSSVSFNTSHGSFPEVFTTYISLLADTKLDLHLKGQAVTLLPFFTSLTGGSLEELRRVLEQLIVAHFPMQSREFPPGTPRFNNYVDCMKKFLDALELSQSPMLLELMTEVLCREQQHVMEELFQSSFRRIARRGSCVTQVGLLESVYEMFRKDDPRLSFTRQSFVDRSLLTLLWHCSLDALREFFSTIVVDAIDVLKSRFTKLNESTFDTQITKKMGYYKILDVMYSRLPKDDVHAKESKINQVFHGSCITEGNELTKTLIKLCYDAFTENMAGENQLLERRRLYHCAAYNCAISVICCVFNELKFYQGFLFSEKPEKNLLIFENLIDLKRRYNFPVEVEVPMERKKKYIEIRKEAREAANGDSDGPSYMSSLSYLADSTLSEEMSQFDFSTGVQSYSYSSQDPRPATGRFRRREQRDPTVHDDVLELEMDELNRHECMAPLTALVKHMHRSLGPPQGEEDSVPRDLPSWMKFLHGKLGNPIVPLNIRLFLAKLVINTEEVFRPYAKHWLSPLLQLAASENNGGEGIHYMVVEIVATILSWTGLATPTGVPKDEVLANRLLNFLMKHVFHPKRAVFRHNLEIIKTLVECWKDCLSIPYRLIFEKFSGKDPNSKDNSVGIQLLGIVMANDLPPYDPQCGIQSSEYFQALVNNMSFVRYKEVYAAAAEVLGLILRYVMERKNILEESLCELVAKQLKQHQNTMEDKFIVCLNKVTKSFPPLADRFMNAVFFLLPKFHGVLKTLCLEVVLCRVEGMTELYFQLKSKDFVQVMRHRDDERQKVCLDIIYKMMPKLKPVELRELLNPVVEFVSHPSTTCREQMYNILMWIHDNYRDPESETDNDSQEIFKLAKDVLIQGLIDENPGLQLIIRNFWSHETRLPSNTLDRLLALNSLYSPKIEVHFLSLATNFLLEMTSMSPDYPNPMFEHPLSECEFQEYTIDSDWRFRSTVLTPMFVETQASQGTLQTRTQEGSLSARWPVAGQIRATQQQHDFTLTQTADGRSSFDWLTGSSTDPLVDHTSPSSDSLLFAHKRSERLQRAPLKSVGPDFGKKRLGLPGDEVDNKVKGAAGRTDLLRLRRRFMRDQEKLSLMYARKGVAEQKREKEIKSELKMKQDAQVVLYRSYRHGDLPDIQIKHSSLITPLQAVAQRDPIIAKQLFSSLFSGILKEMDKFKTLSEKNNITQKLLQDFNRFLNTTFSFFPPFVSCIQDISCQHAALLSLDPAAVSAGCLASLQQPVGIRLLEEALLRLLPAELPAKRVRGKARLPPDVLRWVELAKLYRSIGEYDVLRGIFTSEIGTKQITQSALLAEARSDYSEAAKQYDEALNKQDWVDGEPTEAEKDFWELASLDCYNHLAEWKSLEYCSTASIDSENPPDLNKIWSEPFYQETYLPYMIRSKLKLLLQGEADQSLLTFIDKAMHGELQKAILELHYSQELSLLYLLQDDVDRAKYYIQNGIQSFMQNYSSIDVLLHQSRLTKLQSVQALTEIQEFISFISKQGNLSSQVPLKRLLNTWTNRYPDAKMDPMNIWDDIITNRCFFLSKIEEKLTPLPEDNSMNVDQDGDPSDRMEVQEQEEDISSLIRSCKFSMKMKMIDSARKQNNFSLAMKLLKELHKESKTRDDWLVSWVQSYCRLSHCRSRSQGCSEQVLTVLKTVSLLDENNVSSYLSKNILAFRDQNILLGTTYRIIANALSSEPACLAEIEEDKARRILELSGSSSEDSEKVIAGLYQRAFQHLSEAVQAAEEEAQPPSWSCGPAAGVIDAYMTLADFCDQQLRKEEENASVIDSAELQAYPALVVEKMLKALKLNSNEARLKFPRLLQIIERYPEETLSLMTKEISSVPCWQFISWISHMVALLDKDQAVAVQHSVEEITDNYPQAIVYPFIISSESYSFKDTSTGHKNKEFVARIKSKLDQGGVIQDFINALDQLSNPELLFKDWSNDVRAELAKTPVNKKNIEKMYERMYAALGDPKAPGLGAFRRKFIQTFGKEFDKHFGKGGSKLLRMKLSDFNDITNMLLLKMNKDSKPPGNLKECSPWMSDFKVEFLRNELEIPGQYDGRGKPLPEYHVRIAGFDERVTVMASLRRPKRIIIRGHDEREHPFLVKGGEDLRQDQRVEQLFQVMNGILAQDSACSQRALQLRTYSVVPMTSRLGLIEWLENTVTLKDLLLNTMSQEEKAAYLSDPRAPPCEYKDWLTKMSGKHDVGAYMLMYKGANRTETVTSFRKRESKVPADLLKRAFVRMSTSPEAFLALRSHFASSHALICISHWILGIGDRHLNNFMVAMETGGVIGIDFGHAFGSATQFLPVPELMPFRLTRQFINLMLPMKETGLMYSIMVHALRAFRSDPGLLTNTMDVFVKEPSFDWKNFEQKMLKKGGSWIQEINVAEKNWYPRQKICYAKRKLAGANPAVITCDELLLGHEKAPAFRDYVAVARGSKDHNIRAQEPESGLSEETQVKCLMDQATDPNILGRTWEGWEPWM

B1: Endostatin: recombinant natural human endostatin expressed by E. coli, from Protgen, SEQ ID NO: 2 (protein)
chain: MHSHRDFQPVLHLVALNSPLSGGMRGIRGADFQCFQQARAVGLAGTFRAFLSSRLQDLYSIVRRADRAAVPIVNLKDELLFPSWEALFSGSEGPLKPGARIFSFDGKDVLRHPTWPQKSVWHGSDPNGRRLTESYCETWRTEAPSATGQASSLLGGRLLGQSAASCHHAYIVLCIENSFMTASK
modifications: The amino acid sequence of natural human endostatin
Endostatin-binding protein identified by pull-down, SDS-PAGE and mass spectrometric analysis (DNA-PKcs; A549 cell lysate, BSA-coupled Sepharose as control): DNA-PKcs was identified as a protein interacted with Endostatin
DNA-PKcs precipitated by Endostatin-coupled CNBr-activated Sepharose 4B (immunoblotting) (DNA-PKcs; H1299 and A549 cell lysates): can be precipitated by CNBr-activated Sepharose 4B coupled with Endostatin
Co-immunoprecipitation with antibody of DNA-PKcs (DNA-PKcs; H1299 and A549 cells incubated with Endostatin for 2 hours): Endostatin could be co-precipitated by DNA-PKcs
Level of the DNA-PKcs signaling pathway (p-DNA-PKcs (S2056), p-AKT (S473), p-P53 (S15)) [1]: did not affect the level of the DNA-PKcs signaling pathway
Reduction of γH2AX level (repair of DSBs damage) after Etoposide (γH2AX): delayed the reduction of γH2AX level
Effect on inhibition of colony-forming ability by Etoposide [2]: did not significantly enhance theinhibitory effect of Etoposide
Effect on the pro-apoptotic effect of Etoposide (mRNA of pro-apoptotic molecules) [3]: did not significantly enhance the pro-apoptotic effect of Etoposide
tumor suppression rate (A549-shP53 tumor): 37.1%
tumor suppression rate (H1299-P53 tumor; H1299-P53, Day 19, compared with control group, Endostatin 20 mg/kg i.p. once a day, Etoposide 2 mg/kg i.p. once every two days): 33.8%
Effect on the inhibitory effect of Etoposide on tumor growth (H1299-P53 tumor; H1299-P53, Endostatin 20 mg/kg i.p. once a day and Etoposide 2 mg/kg i.p. once every two days): could not enhance the inhibitory effect of Etoposide on tumor growth
Survival time of mice [4]: could prolong the survival time of the mice to some extent
Tumor cell proliferation (PCNA) and protein level of DNA-PKcs in tumor tissue [5]: can attenuate tumor cell proliferation to a certain extent and reduce the protein level of DNA-PKcs
Tumor cell proliferation (PCNA) and protein level of DNA-PKcs in tumor tissue [6]: could reduce the proliferation of tumor cells and reduce the protein level of DNA-PKcs; also recorded: did not enhance the inhibitory effect of Etoposide on tumor proliferation and the effect of Etoposide on the protein levels of DNA-PKcs
